Values quoted from earlier work in publication PMC9974451.

Target: Ubc9 (Homo sapiens) (UniProt P63279)
Assay: differential scanning fluorometry

Chain of importin 13 (O94829 whole entry): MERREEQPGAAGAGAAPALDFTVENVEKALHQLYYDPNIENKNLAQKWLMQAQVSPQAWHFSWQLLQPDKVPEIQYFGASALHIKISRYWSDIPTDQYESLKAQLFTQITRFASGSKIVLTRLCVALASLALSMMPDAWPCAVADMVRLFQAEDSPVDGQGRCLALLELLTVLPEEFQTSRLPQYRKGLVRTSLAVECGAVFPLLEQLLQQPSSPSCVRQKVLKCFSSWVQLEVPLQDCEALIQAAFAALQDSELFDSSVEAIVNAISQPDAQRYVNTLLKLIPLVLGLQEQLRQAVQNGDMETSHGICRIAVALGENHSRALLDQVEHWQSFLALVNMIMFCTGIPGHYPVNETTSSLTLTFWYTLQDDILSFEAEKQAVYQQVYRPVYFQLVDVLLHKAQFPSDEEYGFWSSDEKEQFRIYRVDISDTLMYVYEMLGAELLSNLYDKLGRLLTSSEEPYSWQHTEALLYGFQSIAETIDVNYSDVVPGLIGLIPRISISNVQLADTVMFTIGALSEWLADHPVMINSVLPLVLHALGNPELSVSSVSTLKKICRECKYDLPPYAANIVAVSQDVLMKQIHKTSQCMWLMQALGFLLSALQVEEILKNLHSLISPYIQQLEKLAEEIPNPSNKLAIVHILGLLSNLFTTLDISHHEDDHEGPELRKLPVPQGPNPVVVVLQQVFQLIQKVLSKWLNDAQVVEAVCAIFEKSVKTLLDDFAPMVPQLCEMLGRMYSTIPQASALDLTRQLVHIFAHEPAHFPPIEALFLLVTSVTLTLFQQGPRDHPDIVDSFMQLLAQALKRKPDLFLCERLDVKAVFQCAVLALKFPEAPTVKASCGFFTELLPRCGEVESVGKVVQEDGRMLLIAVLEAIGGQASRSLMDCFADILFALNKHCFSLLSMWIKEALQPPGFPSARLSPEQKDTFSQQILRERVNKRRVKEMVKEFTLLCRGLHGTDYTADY
Chain of Ubc9 (Homo sapiens) (P63279 2-158): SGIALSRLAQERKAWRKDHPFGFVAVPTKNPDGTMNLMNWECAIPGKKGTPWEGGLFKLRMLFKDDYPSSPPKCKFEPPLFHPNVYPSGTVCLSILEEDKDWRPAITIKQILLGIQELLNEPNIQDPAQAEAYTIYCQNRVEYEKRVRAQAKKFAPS

Kd: 370 nM
Substance: importin 13 (from UniProt O94829)
